experiment: soluble on expression in E. coli; label from the status in PepcDB or PDB records

Sequence | soluble on expression in E. coli
MSLTLKLGFKPFSFHLLRSLRTSQGIIKKKEGWLIKLENKTGRLGWGEIAPLNLSELNICGKILEKLGNSPSRQTLEEGIPNWPGSLAFAIGAALAEIDYLIGNDSKNKWLSVTSSALLLPNEESILLNTLQSVLDKHKETQKELTFKWKIRNTSSDSDLNLLKKILFLLPENTRLRIDANGGLNRIQAHEWAQALQNEARIEWLEQPLAVDDIEGMNELAQMLPIALDESLIYNPSLRKSWTGWQIRRPLIEGDPRILLKEFKEKNSYISISTSFETGIGKRWIEHFAALQLRGLTPTQPGLAPGWCPKGPLFCQNPQLVWEAAEGHHHHHH | soluble
MLFTKASEYALLSLIYISQKETPQDVDSLALELDIPKSFLAKILQTLAKDGLLKSFKGAKGGFVLIKEPSQYTIKEIVNSAEKKDISVFECSGGTCPNNKEENCTLMPMLVNLQNKVDEFLDSITLEDIMKNNGKK | soluble
MGSDKIHHHHHHGAGVSTGSKLPDFRGKQGVWTLQAEGKHAEGVDFQVARPGVSHKSILALHKAGYIKTIITQNVDGLDRKVGIPVEDLIEVHGNLFLEVCQSCFSEYVREEIVMSVGLCPTGRNCEGNKRTGRSCRGKLRDATLDWDTEISLNHLDRIRKAWKQTSHLLCIGTSLEIIPMGSLPLDAKSKGIKTTTINYQETAHEKIVETAIHADVKLILYSLCNALGVNVDLGDDLPDEVPIPLKIS | not soluble
MAHHHHHHMRQGRVRTESTVQRFAKTPIGEGFDLWDRDYLLGAMRLFLFKAETAPPFQVGPCMDATGEILVQLEELEDAREQFSIAAEKYLITQQQQLAKIMEIKALECERGPQAALEELTAFLKKETASTNATAVPAPITRAYAYQAELLLKTATPETPELFTEAVETAKLACNHAWDRVHMGYVVLGDALKASGCPDEARKAYSEAFETNRNCITALERHIEVLKEYIAESNDDMRIEALRKELLPLLESAISLHPRPTLIREKAFLLSETLGDAAALEFLDPLICNPPPEEADAAGNVGGRTVATLLKAKAAILADGGKMQEALEVAEAALKESPSDEEAKAIVAELRESL | soluble
HWVTPDGQPGPSGEGGFTAESGRYHLFVSLACPWAHRTLIFRHLKDLQAHIGITIVDPRMLEHGWAFSEISRDNPVQDIRYLHQLYTRAKPDYTGRVTVPVLWDKQRDTIVSNESADIIRMFNSAFDSLTGNDLDFYPEALRNEIGTINEVVYRDFNN | not soluble
MAHHHHHHMYSSVRPYKILQKVKRNDNNSNSNSNNNSNSNSNSSSIRNPPNEAKKEPTEREDSGKKKPVEKKKKYEDLKYYECNRKSLSTKSQEAEGRDKITKYNNKTNQHADNNHVKKLQSEKVLKKKEDMLVTLLKKEQSSVHNKKIIIRHLPPTLSEDNFFESFPSNLKDELDYYYYVNGCVPKNQGGDITHSRMYLSFKDDLKTKEFIKTQHGKFFYDSNGGKFKAMVSFAPYQTIIHKNKLDEMNNTLESDAYFLKCCEEMNNPQEPVKKDDDNADLSNVIKEDGVILPPLVVALRKKLKNKKLK | not soluble
MAGLPDQRLANEALKRGDTVTAQQNYQQLAELGYSEAQVGLADIQVGTRDPAQIKQAEATYRAAADTSPRAQARLGRLLAAKPGATEAEHHEAESLLKKAFANGEGNTLIPLAMLYLQYPHSFPNVNAQQQISQWQAAGYPEAGLAQVLLYRTQGTYDQHLDDVERICKAALNTTDICYVELATVYQKKQQPEQQAELLKQMEAGVSRGTVTAQRVDSVARVLGDATLGTPDEKTAQALLEKIAPGYPASWVSLAQLLYDFPELGDVEQMMKYLDNGRAADQPRAELLLGKLYYEGKWVPADAKAAEAHFEKAVGREVAADYYLGQIYRRGYLGKVYPQKALDHLLTAARNGQNSADFAIAQLFSQGKGTKPDPLNAYVFSQLAKAQDTPEANDLATQLEAPLTPAQRAEGQRLVQQELAARGTLAQSTLQLHALQEEDGEESLLEHHHHHH | soluble
MDVRQSIHSAHAKTLDTQGLRNEFLVEKVFVADEYTMVYSHIDRIIVGGIMPITKTVSVGGEVGKQLGVSYFLERRELGVINIGGAGTITVDGQCYEIGHRDALYVGKGAKEVVFASIDTGTPAKFYYNCAPAHTTYPTKKVTPDEVSPVTLGDNLTSNRRTINKYFVPDVLETCQLSMGLTELAPGNLWNTMPCHTHERRMEVYFYFNMDDDACVFHMMGQPQETRHIVMHNEQAVISPSWSIHSGVGTKAYTFIWGMVGENQVFDDMDHVAVKDLR | not soluble
MGSDKIHHHHHHMTKLRIAVQGCCHGQLNQIYKEVSRIHAKTPIDLLIILGDFQSIRDGQDFKSIAIPPKYQRLGDFISYYNNEIEAPVPTIFIGGNHESMRHLMLLPHGGYVAKNIFYMGYSNVIWFKGIRIGSLSGIWKEWDFNKQRPDWNDLENNNWKANIRNLYHVRISDIAPLFMIKHRIDIMLSHDWPNGVVYHGDTKHLLKLKPFFEQDIKEGKLGSPVTWQLLRDLRPQWWLSAHLHVRFMASIKHNKRSHEPPNKSTSKTKKNNNEIDLDLSSDEDERSGIMNCQEENEYDSKYGETRFLALDKCLPRRRWLEILEIEPDTSHASWKDENHRMFWDPEFINNLVICQKNKNLLSNKPFNSVNWIELSQSNREEGRDIDWENYAIPAYTLDIQKDEVRQTKAFISKFMT | not soluble
MIGITGVTGKLGSKVAQLISEQGISARHLARNPQRAALYDNAELVQVAFENSLEAVEALKGIDVLLMVSASESPNRLQQHFAFLDAAHEAGVKHIVYTSFYNAATEATFTLARDHAKTEKYIKERGFTYTFLRDNFYLDFFLDLCLNNGEIRGPAGNGKVSAVARQDVSEVATTILAKPDKWKNQLLNMTGPADLSMADIVHFVSEQKGEIIPYIDESIEEAYASRKAWPAQDWEYDAWVSTYTAIKEGKQAGVSSDIERVLGRPATSLEQLVKTIK | not soluble
MIANHVSLLIMGIDENQERQKEYNGAFHTDALLLATFNKDDKTVKLTSIPRDTYTYVPVEKKTDNITHAYGSGIVNNGKDGGPQASVEAVEQLLQVPVDYFVKFNFGSFTKIVDGLDGIEVDVPVEFTEQNSKDEPDAIHLKKGLQKLNGEEALALARTRHIDSDAMRGQRQQLVIESILSKLKSVGSITKLEKIVEAVDDDFKTNLVMDDILSFYKYGLNGSVEKIQLAGDDLYLPNGPNGQRVYYYNPNKKDLQSLSNTLRTHLGLSEKQIEENLEHHHHHH | soluble
MKIIAFYLPQFHQIKENDRWWGKGFTEWTNTKSAQPLFSGHYQPREPYQDFYYDLTTPSVRKWQAEIAKAYGIYGFCYYHYWFKGKRLLETPFNEVLKMKEPDFPFCLSWANEPWTKSWDGLDKHILMPQDYGDISDWKEHFDYLLQAFQDERYIYIDDKPLFIIYRPGHIPDCEKMLNYWNALARANGLKGIYFAETLNSFPLPNINGFDASIQFEPFYTIAHDSSSDINKVIYDSDMQLNVWDYDKVWMYILQRSLPKKKTFPGAFVDWDNTARRKNANSSIFVGSTPEKFTIYLSKQIHRTYSFYNSEFLFINAWNEWAEGTYLEPDKKYGFSYLEGVKNAIDRGMKAYKKDESFLEHHHHHH | not soluble
MGSDKIHHHHHHMQDLNDLYYFVQVVKHGGFAPAGRALGIPKSKLSRRITQLEERLDTRLIHRSTRRFSVTELGQAYYRHSVAMLVEAEAAEELIQRHHAEPQGTVRLSCSPSVLHYLITPLLVRFMARCPKVEVQVEATSRRVDVIKEGFDLAIRVRFPPLEDSDLTMKVLASSPQRLMAAPSLFAERPRPRSPADLVELPSLDFEQYDHRHCWDLVGPNGASAQVPHWPRLVTDSAETLHAAALEGLGVVKLGLLVGARDIQEGRLIDVLPGWEPRGGILHAAFPSRRGLLPAVRALLDFLDEQIADEDFDTQEALINSSPRG | not soluble
MSLEKAPHLTILVSIDGFRADYLDRGDTPVMKALAENGARAAMRPSFPSVTFPNHYTLITGKRPDRNGIVANTMVDPSVSAEKFTMRSLDPAWWSQAKPFWVSVEQQGKRAAAMFWPGSEVEIDGVRPSRWVKFDQTMPGDARVDQVLNWLDSADGPPIAFSTLYFDIVDTQGHHYGPESPEVRAAAASVDAALGRLVAGLKARGRFESTDIVIVADHGMAPLPAANRVVLDDLVDVSKIRLVTTGAVTAFSPMPGERKAVEAAFLSKPLPHMTCWKKNRIPARFHYGRNSRVPAIVCLSETGWYTTTEAAKQKPSEWDGKDGGAHGFDPYDPTMQAVFVAHGPSFKSGVALPAFDNVDVYALLAKVTGVRPEKTDGSLKVVREEGHHHHHH | not soluble
MGSDKIHHHHHHASHYLLLGGSGWDKIAIVNKNTKEIEWEHPLEKGWECNSVAVTPDRNILFSYSKGAKLITRDHEEVWNISAPEGCEMQTARVLPNGNYLLAWCGYPATIMEVNAKGEILSKTDFDTHIEQPHAQFRQVNKNKQGNYLVPLFATSEIREISPSGQLLKSVKVDGNPFSVAALDNGNYLVACGDAHCFIELNFETGDIVRKVNENDIEGAQLFFVAQLLPKRDGGLYICNWQGHDGEAAKGHYPQLIEINGAGKMVWDLNDNATFGMISSICPID | not soluble
MKNKSLLLAVAISATLLAGCKNGVNGNLIASSGMSTYKAATLSDADVKALSNNACKQMDSENQLAGSKSKYTKRLSKIAKALGNNIDGTPVSYKVYMTSDINAWAMANGCVRVYSGLMDLMTDNEIEGVLGHELGHVSLGHSRKAMQTAYATLAARDAISATSGVAAQLSQSQLGDLAEGVINSAFSRSQESDADDFSYDLLKKRGINTQGLVTAFDKFATMDAGHAKSLMDSHPASADRAQHMRDRIAEDKKLEHHHHHH | not soluble
MGSDKIHHHHHHMKFLRSLAFLNLQKKFKNKFNINILDYIKPKPTKICFKDFENKYLTAKQKEVLFDIESNNYSKVIFSGGIASGKTFLASYLLVKKLIENKSFYEQDTNNFIIGNSIGLLMTNTVKQIEKICSLLGIDYEKKKSGQSFCKIAGLKLNIYGGKNRDAFSKIRGGNSAIIYVNEATVIHRETLLEVIKRLRKGKEIIIFDTNPESPAHYFKTDYIENTDVFKTYNFTTYDNPLNSADFIQTQEKLYRRFPAYRARVLYGEWILNESTLFNEMIFNQDYEFKSPIMYIDPAFSVGGDNTAICVLERTFEKFYAYIYQDQKPVSDSLMLASIQVLIENFNVNTVYIEERDSTKGDGILTKTILFLRNKSSHYFKVAPIKPLSNKFKRICALIPLFESRKIEFLKIISKNVISDIYSYKGDGKTKDDALDSLANAYLLLTLNYKEKLFHFGRFKYL | not soluble
MSQAFTESVKTSLGPNATPRAKKLIASLVQHVHDFARENHLTTEDWLWGVDFINRIGQMSDSRRNEGILVCDIIGLETLVDALTNESEQSNHTSSAILGPFYLPDSPVYPNGGSIVQKAIPTDVKCFVRGKVTDTEGKPLGGAQLEVWQCNSAGFYSQQADHDGPEFNLRGTFITDDEGNYSFECLRPTSYPIPYDGPAGDLLKIMDRHPNRPSHIHWRVSHPGYHTLITQIYDAECPYTNNDSVYAVKDDIIVHFEKVDNKDKDLVGKVEYKLDYDISLATESSIQEARAAAKARQDAEIKL | soluble
MGSDKIHHHHHHVSDLLSQDEIDALLHGVDDVEEEEVSDALDARAYDFSSQDRIVRGRMPTLEIVNERFARHLRISMFNMMRRAAEVSINGVQMLKFGEYVHTLFVPTSLNMVRFSPLKGTALITMEARLVFILVDNFFGGDGRFHAKIEGREFTPTERRIVQLLLKIIFEDYKEAWAPVMDVEFDYLDSEVNPAMANIVSPTEVVVVSSFHIEVDGGGGDFHITMPYSMIEPIRELLDAGVQSDTQDTDMRWSQALKDEIMDVEVGLDATIVEKEISLKDVMGFKAGDIIPVEMPEYIVLRVEDLPTYRCKLGRSRENLALNIREKIPRPETVKTELQLVTKKSKSRDLNNI | not soluble
